For this experiment, the target named is mouse Cav1.3 α1 subunit expressed in HEK cells (mouse) (UniProt Q99246).
Sequence of mouse Cav1.3 α1 subunit expressed in HEK cells (mouse) (Q99246 whole entry): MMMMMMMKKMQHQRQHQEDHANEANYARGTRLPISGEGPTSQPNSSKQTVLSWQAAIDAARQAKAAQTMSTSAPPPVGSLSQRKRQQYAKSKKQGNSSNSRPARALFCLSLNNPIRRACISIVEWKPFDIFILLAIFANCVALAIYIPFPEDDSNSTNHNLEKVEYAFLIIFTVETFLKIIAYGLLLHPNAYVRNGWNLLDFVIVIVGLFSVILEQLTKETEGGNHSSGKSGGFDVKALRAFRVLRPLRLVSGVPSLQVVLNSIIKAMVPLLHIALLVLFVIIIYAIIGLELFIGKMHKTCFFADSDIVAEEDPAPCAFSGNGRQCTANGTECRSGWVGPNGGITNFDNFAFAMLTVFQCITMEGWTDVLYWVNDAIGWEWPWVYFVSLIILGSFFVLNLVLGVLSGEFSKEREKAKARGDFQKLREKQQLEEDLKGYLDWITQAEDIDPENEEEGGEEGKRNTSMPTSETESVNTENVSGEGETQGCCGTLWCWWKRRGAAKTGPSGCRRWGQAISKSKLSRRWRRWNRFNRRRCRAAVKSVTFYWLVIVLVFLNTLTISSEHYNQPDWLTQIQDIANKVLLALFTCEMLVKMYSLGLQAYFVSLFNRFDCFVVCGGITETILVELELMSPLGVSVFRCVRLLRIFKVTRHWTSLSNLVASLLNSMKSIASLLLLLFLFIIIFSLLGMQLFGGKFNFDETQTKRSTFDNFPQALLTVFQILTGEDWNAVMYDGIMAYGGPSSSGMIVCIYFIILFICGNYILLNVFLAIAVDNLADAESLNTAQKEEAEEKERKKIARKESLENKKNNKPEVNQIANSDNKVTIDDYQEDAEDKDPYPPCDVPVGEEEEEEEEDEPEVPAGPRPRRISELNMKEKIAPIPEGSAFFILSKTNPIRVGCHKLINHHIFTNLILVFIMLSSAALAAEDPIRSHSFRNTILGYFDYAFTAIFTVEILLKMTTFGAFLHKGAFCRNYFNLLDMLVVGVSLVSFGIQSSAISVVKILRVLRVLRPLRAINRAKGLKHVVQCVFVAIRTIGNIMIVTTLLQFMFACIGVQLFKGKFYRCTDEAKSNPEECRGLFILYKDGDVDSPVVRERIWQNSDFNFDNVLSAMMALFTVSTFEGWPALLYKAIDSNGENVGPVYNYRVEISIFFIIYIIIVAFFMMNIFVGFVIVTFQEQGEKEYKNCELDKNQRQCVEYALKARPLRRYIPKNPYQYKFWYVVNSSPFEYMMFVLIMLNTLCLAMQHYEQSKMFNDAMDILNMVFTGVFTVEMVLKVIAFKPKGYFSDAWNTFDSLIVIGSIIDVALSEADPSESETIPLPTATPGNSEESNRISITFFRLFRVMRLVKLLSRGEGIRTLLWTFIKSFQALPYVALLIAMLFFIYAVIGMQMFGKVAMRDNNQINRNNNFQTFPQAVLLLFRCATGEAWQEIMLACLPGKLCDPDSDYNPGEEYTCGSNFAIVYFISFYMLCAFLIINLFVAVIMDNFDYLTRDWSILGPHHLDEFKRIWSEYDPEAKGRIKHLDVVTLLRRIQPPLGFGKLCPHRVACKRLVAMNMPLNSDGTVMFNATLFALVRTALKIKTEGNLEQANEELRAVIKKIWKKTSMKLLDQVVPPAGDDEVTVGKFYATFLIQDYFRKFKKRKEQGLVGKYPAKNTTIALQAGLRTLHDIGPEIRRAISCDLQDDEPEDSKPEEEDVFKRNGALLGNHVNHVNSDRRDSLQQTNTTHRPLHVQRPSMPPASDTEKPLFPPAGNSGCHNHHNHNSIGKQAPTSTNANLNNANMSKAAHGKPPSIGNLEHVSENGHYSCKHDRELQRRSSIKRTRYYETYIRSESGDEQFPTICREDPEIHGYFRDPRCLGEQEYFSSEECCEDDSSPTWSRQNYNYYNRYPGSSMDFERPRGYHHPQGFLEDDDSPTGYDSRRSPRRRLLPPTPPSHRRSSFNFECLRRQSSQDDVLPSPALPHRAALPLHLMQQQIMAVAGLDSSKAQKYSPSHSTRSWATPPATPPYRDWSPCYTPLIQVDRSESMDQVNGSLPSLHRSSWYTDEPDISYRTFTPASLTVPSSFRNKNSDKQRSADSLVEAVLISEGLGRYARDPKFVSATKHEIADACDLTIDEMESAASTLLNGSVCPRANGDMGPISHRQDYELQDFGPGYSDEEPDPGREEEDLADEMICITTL

B1: human RS1 (wild type) expressed in HEK cells (natural protein)
chain: STEDEGEDPWYQKACKCDCQGGPNALWSAGATSLDCIPECPYHKPLGFESGEVTPDQITCSNPEQYVGWYSSWTANKARLNSQGFGCAWLSKFQDSSQWLQIDLKEIKVISGILTQGRCDIDEWMTKYSVQYRTDERLNWIYYKDQTGNNRVFYGNSDRTSTVQNLLRPPIISRFIRLIPLGWHVRIAIRMELLECVSKCA
Consider B1, for which the shift of the current-membrane voltage relationship (voltage-dependent activation) of Cav1.3-LTCCs on co-transfection with RS1, HEK cells was -10 mV.
